T1: human CD73 expressed on cells (cancer cell line NCI-H1373 endogenously expressing human CD73); human T cell … (human, UniProt P21589 27-549)
T1 sequence (looked up): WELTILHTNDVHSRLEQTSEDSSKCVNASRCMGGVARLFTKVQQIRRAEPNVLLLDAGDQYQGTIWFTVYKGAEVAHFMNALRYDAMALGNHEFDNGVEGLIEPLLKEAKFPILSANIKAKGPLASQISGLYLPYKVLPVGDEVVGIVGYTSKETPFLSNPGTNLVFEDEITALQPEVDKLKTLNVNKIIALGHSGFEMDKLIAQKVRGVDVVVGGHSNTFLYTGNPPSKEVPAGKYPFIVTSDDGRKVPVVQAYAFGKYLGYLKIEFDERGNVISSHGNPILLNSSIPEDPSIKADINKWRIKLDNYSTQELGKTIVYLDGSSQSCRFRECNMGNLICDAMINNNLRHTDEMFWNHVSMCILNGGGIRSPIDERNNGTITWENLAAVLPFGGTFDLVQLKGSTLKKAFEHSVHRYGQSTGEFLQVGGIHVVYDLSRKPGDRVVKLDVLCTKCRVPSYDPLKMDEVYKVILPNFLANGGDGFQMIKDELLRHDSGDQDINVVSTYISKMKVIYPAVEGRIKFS

T2: human CD73 protein (BPS Bioscience Inc., 71184) (human, UniProt P21589 27-547, limits assumed)
T2 sequence (looked up): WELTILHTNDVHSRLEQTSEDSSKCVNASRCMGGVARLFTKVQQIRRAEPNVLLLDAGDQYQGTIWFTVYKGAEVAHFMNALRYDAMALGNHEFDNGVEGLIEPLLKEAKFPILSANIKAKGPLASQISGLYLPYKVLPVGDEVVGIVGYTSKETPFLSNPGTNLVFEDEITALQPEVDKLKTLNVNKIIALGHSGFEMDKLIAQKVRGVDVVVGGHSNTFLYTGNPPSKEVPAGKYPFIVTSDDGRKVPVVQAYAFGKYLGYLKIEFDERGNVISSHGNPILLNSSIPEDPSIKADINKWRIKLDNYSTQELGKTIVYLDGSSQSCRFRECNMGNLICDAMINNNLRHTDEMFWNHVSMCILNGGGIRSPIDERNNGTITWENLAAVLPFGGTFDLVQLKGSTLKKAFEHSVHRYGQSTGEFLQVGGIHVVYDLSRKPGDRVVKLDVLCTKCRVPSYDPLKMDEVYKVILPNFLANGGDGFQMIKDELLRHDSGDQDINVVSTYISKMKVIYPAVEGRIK

T3: human CD73 protein (R&D Systems, Inc., 5795) (human, UniProt P21589 27-549)
T3 sequence (looked up): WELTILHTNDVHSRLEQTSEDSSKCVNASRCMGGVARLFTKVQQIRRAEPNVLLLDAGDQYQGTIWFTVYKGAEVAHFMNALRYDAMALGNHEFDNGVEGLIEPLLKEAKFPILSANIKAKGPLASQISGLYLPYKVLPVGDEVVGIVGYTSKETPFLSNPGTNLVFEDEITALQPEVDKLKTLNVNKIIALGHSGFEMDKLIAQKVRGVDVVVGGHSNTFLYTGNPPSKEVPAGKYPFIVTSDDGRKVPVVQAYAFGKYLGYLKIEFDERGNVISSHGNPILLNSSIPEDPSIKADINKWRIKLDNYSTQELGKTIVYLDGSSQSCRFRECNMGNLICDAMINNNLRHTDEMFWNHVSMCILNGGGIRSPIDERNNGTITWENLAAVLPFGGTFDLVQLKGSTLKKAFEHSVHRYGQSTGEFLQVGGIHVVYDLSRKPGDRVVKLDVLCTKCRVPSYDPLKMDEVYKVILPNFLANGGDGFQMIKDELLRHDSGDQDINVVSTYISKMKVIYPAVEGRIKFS


Experiments:
[1] = molecular target: T1, human CD73 expressed on cells (cancer …); experiment: cell-based or functional assay
[2] = molecular target: T2, human CD73 protein (BPS Bioscience …); experiment: ELISA, human CD73 protein immobilised on plate, second run
Experimental: (§1) In order to evaluate the binding activity of CDS-1, CDS-3, CDS-6, CDS-7, and CDS-8 acquired in Example 1 to human CD73, the ELISA was performed using a human CD73 protein. The human CD73 protein (BPS Bioscience Inc., 71184) diluted in PBS (Life Technologies, Inc.) to have a concentration of 4 μg/mL was added to a MaxiSorp 384-well plate Clear (Thermo Fisher Scientific Inc.) by an amount of 20 μL/well, and then immobilized overnight at a temperature of 4° C. The next day, the resultant was washed with a wash solution (0.05% Tween-20 containing Tris-buffered saline (TBS)) once, Blocking One (Nacalai tesque, Inc.) was added thereto in an amount of 100 μL/well, and the resultant was blocked at room temperature for 30 minutes. The resultant was washed with the wash solution once again, and the purified CDS-1, the purified CDS-3, the purified CDS-6, the purified CDS-7, or the purified CDS-8 prepared in Example 1 was added thereto by an amount of 20 μL/well, respectively. These purified antibodies were diluted using a reaction buffer obtained by mixing the same amount of PBS and Blocking One, and dilution was performed in 12 steps from 10 μg/mL to 56 pg/mL. The resultant was reacted at room temperature for 1 hour, and then washed three times with a wash solution. 20 μL/well of a human IgG-heavy and light chain cross-adsorbed antibody (Bethyl Laboratories Inc., A80-219P) which had been diluted 4000-fold with a reaction buffer was added thereto, and the resultant was reacted at room temperature for 1 hour. The resultant was washed with a wash solution three times, and 20 μL/well of TMB+substrate-chromogen (DAKO Ltd., 51599) was added thereto. […] The values of absorbance at 450 nm and 540 nm were measured by Infinite M200 PRO (TECAN Inc.), and EC₅₀ values of CDS-1, CDS-3, CDS-6, CDS-7, and CDS-8 with respect to the human CD73 protein were calculated. In calculation of the EC₅₀ values, the ordinate represents a difference in the measurement values of absorbance at 450 nm and 540 nm, and the abscissa represents an antibody concentration value.

[3] = molecular target: T1, human CD73 expressed on cells (cancer …); experiment: cell-based or functional assay; remark: listed apart in the source
[4] = molecular target: T3, human CD73 protein (R&D Systems, Inc., …); experiment: cell-based or functional assay
[5] = molecular target: T2, human CD73 protein (BPS Bioscience …); experiment: ELISA, human CD73 protein immobilised on plate, first run
Experimental: as §1, with “respectively.” for “respectively. These purified antibodies were diluted using a reaction buffer obtained by mixing the same amount of PBS and Blocking One, and dilution was performed in 12 steps from 10 μg/mL to 56 pg/mL. The resultant was reacted at room temperature for 1 hour, and then washed three times with a wash solution. 20 μL/well of a human IgG-heavy and light chain cross-adsorbed antibody (Bethyl Laboratories Inc., A80-219P) which had been diluted 4000-fold with a reaction buffer was added thereto, and the resultant was reacted at room temperature for 1 hour. The resultant was washed with a wash solution three times, and 20 μL/well of TMB+substrate-chromogen (DAKO Ltd., 51599) was added thereto.”

EC50 (ng/mL), First; inhibition of enzymatic activity of human CD73 in NCI-H1373 cells (adenosine from AMP, LC/MS) [1] [ng/mL] | EC50 (ng/mL), Second; inhibition of enzymatic activity of human CD73 in NCI-H1373 cells (adenosine from AMP, LC/MS) [1] [ng/mL] | EC50 [2] [µg/mL] | EC50 (ng/mL), IFNγ; recovery of AMP-dependently suppressed human T cell functions [3] [ng/mL] | EC50 (ng/mL), Proliferation of T cells; recovery of AMP-dependently suppressed human T cell functions [3] [ng/mL] | EC50 (ng/mL), First; inhibition of enzymatic activity of human CD73 protein (adenosine from AMP, LC/MS) [4] [ng/mL] | EC50 (ng/mL), Second; inhibition of enzymatic activity of human CD73 protein (adenosine from AMP, LC/MS) [4] [ng/mL] | EC50 [5] [µg/mL] | Binder
785 | 579 | 0.0088 | 5.8 | 23.2 | 16.8 | 9.2 | 0.0039 | anti-human CD73 antibody CDS-1 (antibody, human IgG1, kappa, L234A L235A, also called purified CDS-1) heavy: not shown light: DIQMTQSPSSLSASVGDRVTITCRASQIIGPWLAWYQQKPGKAPKLLIYRASSLESGVPSRFSGSGSGTDFTLTISSLQPEDFATYYCQQYNSYSPWTFGQGTKVEIKRTVAAPSVFIFPPSDEQLKSGTASVVCLLNNFYPREAKVQWKVDNALQSGNSQESVTEQDSKDSTYSLSSTLTLSKADYEKHKVYACEVTHQGLSSPVTKSFNRGEC
– | 455 | 0.0209 | – | – | – | 19.4 | – | CDS-3, fused form in which human IL-7 is fused to the C terminal side of the heavy chain of CDS-1 (antibody, human IgG1, kappa, L234A L235A, also called purified CDS-3) heavy: not shown light: DIQMTQSPSSLSASVGDRVTITCRASQIIGPWLAWYQQKPGKAPKLLIYRASSLESGVPSRFSGSGSGTDFTLTISSLQPEDFATYYCQQYNSYSPWTFGQGTKVEIKRTVAAPSVFIFPPSDEQLKSGTASVVCLLNNFYPREAKVQWKVDNALQSGNSQESVTEQDSKDSTYSLSSTLTLSKADYEKHKVYACEVTHQGLSSPVTKSFNRGEC
– | 678 | 0.0196 | – | – | – | 20.4 | – | CDS-6, fused form in which human IL-7 variant is fused to the C terminal side of the heavy chain of CDS-1 (antibody, human IgG1, kappa, L234A L235A, also called purified CDS-6) heavy: not shown light: DIQMTQSPSSLSASVGDRVTITCRASQIIGPWLAWYQQKPGKAPKLLIYRASSLESGVPSRFSGSGSGTDFTLTISSLQPEDFATYYCQQYNSYSPWTFGQGTKVEIKRTVAAPSVFIFPPSDEQLKSGTASVVCLLNNFYPREAKVQWKVDNALQSGNSQESVTEQDSKDSTYSLSSTLTLSKADYEKHKVYACEVTHQGLSSPVTKSFNRGEC

Reference: patent publication US20200071404A1 (Astellas, published 2020)
